Changes are numbered by the printed parent chain. Numbers in names are those of the source. Entries after “also recorded” stand apart in the source; their conditions may differ.

For one test, the system named is Ad3-GFP virus. As to the kind of experiment: Competition of Ad3-GFP virus infection on HeLa cells. Type of test: cell-based, adenovirus serotype 3 (Ad3). As to conditions: HeLa cells pre-incubated with knob, 100 pfu/cell Ad3-GFP, GFP at 18 hours. The method, then: FIG. 3. Competition of Ad3 virus by dimerized Ad3 knob mutants. A) Relative attachment of ^3H-labeled Ad3 virus in the presence of dimeric fiber knob mutants. 1.8×10^5 HeLa cells were incubated with Ad3 knob mutants at a concentration of 2.5 and 100 μg/ml on ice for 1 hour. Then 400 pfu/cell of ^3H-Ad3 virus was added on ice for another hour. Unbound virus particles were washed away. Attachment of virus particles incubated with PBS was taken as 100%. N=3. B) Competition of Ad3-GFP virus infection on HeLa cells. 1.5×10^5 HeLa cells were seeded into 24 well plates. Cells were incubated with the Ad3 knob mutants at increasing concentrations for one hour at room temperature. 100 pfu/cell of Ad3-GFP virus were then added and GFP expression was analyzed 18 hours later by flow cytometry. Left panel: percentage of GFP positive cells. Right panel: mean fluorescence intensity. N=3. The standard deviation was less than 10%. C) Relative attachment of ^3H-labeled Ad3 virus in the presence of dimeric fiber knob mutants with multiple mutations. The study was performed as described in […]) The standard deviation was less than 10%. D) Competition of Ad3-GFP virus infection on HeLa cells. The study was performed as described in C) The standard deviation was less than 10%.
FIG. 9. Analysis of dimeric Ad3 fiber knob mutants with increased affinity to DSG2. A) Competition of Ad3-GFP virus infection on HeLa cells with dimeric affinity-enhanced mutant Y250F and JO-1 (dimeric wt Ad3 fiber knob). The experimental setting is as described for FIG. 3C. left panel: percentage of GFP positive cells. Right panel: mean fluorescence intensity. N=3. The standard deviation was less than 10%. […] 100 pfu/cell of Ad3GFP virus were then added and GFP expression was analyzed 18 hours later. […]
Competition studies were performed on HeLa cells, which express DSG2 (42). […] Transduction was measured based on GFP expression (FIG. 3B). […] Dimeric Ad3 knob mutants with combined mutations were also analyzed for their ability to compete with Ad3 virus for attachment (FIG. 3C) and infection (FIG. 3D).

For test [1], the system named is MDA-MB-231 orthotopic TNBC tumors. Description: Enhancement of nab-paclitaxel/cetuximab therapy in triple negative breast cancer model. It is filed as in vivo, CB17 SCID-beige mice. As to conditions: 2 mg/kg i.v. 1 hour before cetuximab 10 mg/kg i.p. and nab-paclitaxel 5 mg/kg i.v., weekly; N=10. Here is the method: FIG. 10. Combination of affinity-enhanced JO-1 versions with chemotherapy. A) Enhancement of irinotecan (I) therapy. The experimental setting was the same as in FIG. 5B. […] N=5. […] Mammary fat pad tumors were established from primary ovarian cancer ovc316 cells. Treatment was started when tumors reached a volume of 100 mm^3 Mice were injected intravenously with 2 mg/kg JO-1 or with 0.5 mg/kg JO-4, followed by an intravenous injection of PEGylated liposomal doxorubicin (PLD) (1 mg/kg) one hour later. Treatment was repeated weekly. […] A total of 4×10^6 TNBC MDA-MB-231 cells were injected into the mammary fat pad of CB17 SCID-beige mice. JO-4 (2 mg/kg) was intravenously injected 1 hour before the application of cetuximab (C) (10 mg/kg, i.p.) and nab-paclitaxel (nab-P) (5 mg/kg, i.v). Treatment was given weekly. N=10 P<0.01 at day 25 for nab-P+C vs JO-4+nab-P+C.
A549, MDA-MB-231, and ovc316 xenograft tumors were established by injection of the corresponding tumor cells into the mammary fat pad (1:1 with Matrigel) of CB17 mice. TC1-DSG2 tumors were established by subcutaneous injection of TC1-DSG2 cells into DSG2 transgenic mice. […] Tumor volumes were measured three times a week. […]

B1: D261N (protein)
chain: MKVSALKEKVSALKEKVSALKEKVSALKEKVSALKEGSGGGSGGGSGGGSNSIALKNNTLWTGPKPEANCIIEYGKQNPDSKLTLILVKNGGIVNGYVTLMGASDYVNTLFKNKNVSINVELYFDATGHILPDSSSLKTDLELKYKQTADFSARGFMPSTTAYPFVLPNAGTHNENYIFGQCYYKASNGALFPLEVTVMLNKRLPDSRTSYVMTFLWSLNAGLAPETTQATLITSPFTFSYIREDD
For B1, the “Competition of Ad3-GFP infection based on GFP expression” value with Ad3-GFP virus was “least reduced”.

B2: JO-4 (protein)
chain: B1 chain with Y177F, N188D
B2: the “Enhancement of nab-paclitaxel/cetuximab therapy” value in test [1] was “significantly increased nab-paclitaxel/cetuximab therapy; also recorded: enhances therapy”.
